Data on 1 protein can be found in article PMC8220720, “Universal capability of 3-ketosteroid Δ^1-dehydrogenases to catalyze Δ^1-dehydrogenation of C17-substituted steroids” (Microbial Cell Factories, 2021).

Common to all, as to assay: purified protein
Common to all, as to assay type: biochemical, Sterolibacterium denitrificans

Substrate in data set [1]: CC(C)CCC[C@@H](C)[C@H]1CC[C@H]2[C@@H]3CCC4=CC(=O)CC[C@]4(C)[C@H]3CC[C@]12C
To be noted: apparent, as total steroid concentration, DCPIP as acceptor, 2% HBC, 2% EGME, 0.1 M potassium phosphate pH 6.5, 30 °C.

Substrate in data set [2]: C[C@]12CCC(=O)C=C1CC[C@@H]1[C@@H]2CC[C@]2(C)C(=O)CC[C@@H]12
To be noted: pH 6.5; 30.0 °C.

Substrate in data set [3]: O=C1C(Cl)=CC(=Nc2ccc(O)cc2)C=C1Cl
To be noted: apparent, electron acceptor, co-substrate cholest-4-en-3-one, 2% HBC, 2% EGME, 0.1 M potassium phosphate pH 6.5, 30 °C.

B1: AcmB (Sterolibacterium denitrificans) (protein)
chain: MSIETNTYDVIVVGSGAGAMLAAARAHDLGLSVLVVEKSDKYGGTSAVSGGAVWIPNNSQMQIKDSFDEALTYLKAATQGLVAEDRLLAYLESAPQMVEYINANMTLQYFPCHRYPDYYQHLPGAKPGGRTMEPMLFDAALLGDEFANLRMAYTGTLLMGKASMTATEAHVMLAKEPGWMLQVIKSLGRYYLDLPWRLKSRHDRKRGLGNAMAAGLRHALLERKVPLWLNTPFESLITEGAENKRVTGIVVKRNGQTLQLTARRGVVLGAGGFERNQQMREQYLPKPTNAAWSATPPHNTGDTIRAAMDIGARAELMDWAWWVPSIHVPGEAAQTGLFAERNLPGCIVVNGKGQRFINEASPYLEFGAAMYENHARSGSAVPAWLIFDGKFRYNYPMGPLMPGQIQPDRKAWLGKVYWRDDTLEGLAKQIGVDAAGLKQSVELNNQYAQDGKDREFDKGGNVFDRYYGDYNVKPNPCLAPIGKPPYYAMRVDAGDIGTKGGLLTDKDARVLDESDRPIEGLYCIGNNSASVMGKAYPGAGGTLGPAMTFGFRAANHIAASK
notes: recombinant, purified; cloned, expressed and purified as in the authors' earlier work; FAD enzyme
In the case of B1, in “purified protein [1]”, the Km came out at 23.7 ± 1.16 µM, the kcat is 5.8 ± 0.2 s⁻¹ and the catalytic efficiency (kcat/Km) was 245000 ± 1000 M⁻¹ s⁻¹. In the data set “purified protein [2]”, the Km stood at 529.2 ± 32.5 µM and the kcat/Km turned out to be 87000 ± 5000 M⁻¹ s⁻¹. Moreover, in “purified protein [3]”, the Km was determined as 37.3 ± 3.3 µM and the kcat was 5.8 ± 0.2 s⁻¹.

Broadly, the Km is the concentration of substrate that gives half-maximal velocity. By kcat is commonly meant the number of substrate molecules converted per active site and unit of time at saturation. As a reminder, the kcat/Km is the second-order rate constant that governs catalysis at low substrate concentration.
